Results published in article PMC7959165 (Molecular cell, 2020).

Molecular target: E. coli RNAP σ^70 (E. coli, UniProt P00579 1-613)
Sequence (P00579 whole entry): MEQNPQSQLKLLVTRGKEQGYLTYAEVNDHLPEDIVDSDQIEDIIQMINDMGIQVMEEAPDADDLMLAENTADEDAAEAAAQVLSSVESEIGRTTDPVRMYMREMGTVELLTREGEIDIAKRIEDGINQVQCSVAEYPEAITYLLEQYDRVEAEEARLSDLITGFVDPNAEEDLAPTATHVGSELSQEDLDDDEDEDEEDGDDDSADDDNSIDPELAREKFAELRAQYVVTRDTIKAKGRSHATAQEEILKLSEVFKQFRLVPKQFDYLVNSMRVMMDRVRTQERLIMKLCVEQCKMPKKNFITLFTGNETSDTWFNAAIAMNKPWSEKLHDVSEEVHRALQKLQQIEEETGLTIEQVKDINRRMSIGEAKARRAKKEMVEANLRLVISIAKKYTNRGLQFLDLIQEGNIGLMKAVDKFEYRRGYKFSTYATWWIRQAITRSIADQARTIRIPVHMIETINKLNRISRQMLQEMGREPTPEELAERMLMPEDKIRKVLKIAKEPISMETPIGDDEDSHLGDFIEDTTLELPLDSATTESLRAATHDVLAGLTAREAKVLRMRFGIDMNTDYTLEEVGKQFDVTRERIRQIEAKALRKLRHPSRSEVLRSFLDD

B1: E. coli stringent starvation protein A (EcSspA) (natural protein, UniProt P0ACA3 1-212, looked up)
chain: MAVAANKRSVMTLFSGPTDIYSHQVRIVLAEKGVSFEIEHVEKDNPPQDLIDLNPNQSVPTLVDRELTLWESRIIMEYLDERFPHPPLMPVYPVARGESRLYMHRIEKDWYTLMNTIINGSASEADAARKQLREELLAIAPVFGQKPYFLSDEFSLVDCYLAPLLWRLPQLGIEFSGPGAKELKGYMTRVFERDSFLASLTEAEREMRLGRS
B1: binds.
